The values that follow come from IntAct's records for PubMed 11932251.

The target of the test is T1, ranb3_human RANBP3 (UniProt Q9H6Z4).
T1 sequence: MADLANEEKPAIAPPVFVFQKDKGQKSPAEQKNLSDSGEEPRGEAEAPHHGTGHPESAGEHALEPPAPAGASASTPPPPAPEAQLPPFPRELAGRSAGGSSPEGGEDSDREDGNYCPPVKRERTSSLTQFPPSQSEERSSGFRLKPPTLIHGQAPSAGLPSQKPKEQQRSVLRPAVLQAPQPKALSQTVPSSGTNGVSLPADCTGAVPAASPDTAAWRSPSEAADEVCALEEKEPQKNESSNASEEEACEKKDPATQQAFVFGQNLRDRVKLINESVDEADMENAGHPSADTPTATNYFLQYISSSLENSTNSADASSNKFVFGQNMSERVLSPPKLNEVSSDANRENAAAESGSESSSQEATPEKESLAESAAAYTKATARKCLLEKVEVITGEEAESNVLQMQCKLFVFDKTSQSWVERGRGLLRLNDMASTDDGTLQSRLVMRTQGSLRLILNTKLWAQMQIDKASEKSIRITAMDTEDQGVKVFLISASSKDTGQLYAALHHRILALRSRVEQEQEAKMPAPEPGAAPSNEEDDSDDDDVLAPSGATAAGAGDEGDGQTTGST

On to “GTP-binding nuclear protein Ran (Homo sapiens) (from UniProt P62826) Q69L”, for which the “effect of a mutation on the interaction” value is listed as “increasing interaction”.
